Results as given in IntAct's records for PubMed 11801603.

B1: Baculoviral IAP repeat-containing protein 7 (Homo sapiens), Q96CA5 (parent)
chain: MGPKDSAKCLHRGPQPSHWAAGDGPTQERCGPRSLGSPVLGLDTCRAWDHVDGQILGQLRPLTEEEEEEGAGATLSRGPAFPGMGSEELRLASFYDWPLTAEVPPELLAAAGFFHTGHQDKVRCFFCYGGLQSWKRGDDPWTEHAKWFPSCQFLLRSKGRDFVHSVQETHSQLLGSWDPWEEPEDAAPVAPSVPASGYPELPTPRREVQSESAQEPGGVSPAEAQRAWWVLEPPGARDVEAQLRRLQEERTCKVCLDRAVSIVFVPCGHLVCAECAPGLQLCPICRAPVRSRVRTFLS
B2: Baculoviral IAP repeat-containing protein 7 (Homo sapiens), Q96CA5 (parent)
chain: B1 chain
partner: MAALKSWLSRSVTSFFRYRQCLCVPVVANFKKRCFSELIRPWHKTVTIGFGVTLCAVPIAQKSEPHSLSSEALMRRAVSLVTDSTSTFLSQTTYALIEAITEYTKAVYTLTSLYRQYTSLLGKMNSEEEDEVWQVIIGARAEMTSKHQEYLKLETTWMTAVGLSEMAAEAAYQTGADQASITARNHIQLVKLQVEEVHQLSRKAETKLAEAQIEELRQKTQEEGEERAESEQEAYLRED

Variants of: B1
Conditions: with casp9_human CASP9, P55211
Sequence of casp9_human CASP9, P55211 (P55211 whole entry): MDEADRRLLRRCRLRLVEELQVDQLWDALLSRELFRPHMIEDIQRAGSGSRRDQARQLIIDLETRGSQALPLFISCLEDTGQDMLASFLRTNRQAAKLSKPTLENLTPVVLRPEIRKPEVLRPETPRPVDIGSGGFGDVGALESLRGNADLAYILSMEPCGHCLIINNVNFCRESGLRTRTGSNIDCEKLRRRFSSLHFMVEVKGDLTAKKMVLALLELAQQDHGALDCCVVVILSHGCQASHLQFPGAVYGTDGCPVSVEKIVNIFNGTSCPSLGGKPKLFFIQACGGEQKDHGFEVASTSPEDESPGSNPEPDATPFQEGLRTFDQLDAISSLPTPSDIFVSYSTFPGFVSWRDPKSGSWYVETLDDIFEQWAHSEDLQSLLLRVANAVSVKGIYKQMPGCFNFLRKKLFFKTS

Variant	effect of a mutation on the interaction
D138A	decreasing interaction

Variants of: B2
Conditions: with dbloh_human DIABLO

Variant	effect of a mutation on the interaction
D120A	decreasing interaction
D138A	decreasing interaction
